# B1: Zinc finger protein CONSTANS (Arabidopsis thaliana (Mouse-ear cress)), Q39057 (parent)
# chain: MLKQESNDIGSGENNRARPCDTCRSNACTVYCHADSAYLCMSCDAQVHSANRVASRHKRVRVCESCERAPAAFLCEADDASLCTACDSEVHSANPLARRHQRVPILPISGNSFSSMTTTHHQSEKTMTDPEKRLVVDQEEGEEGDKDAKEVASWLFPNSDKNNNNQNNGLLFSDEYLNLVDYNSSMDYKFTGEYSQHQQNCSVPQTSYGGDRVVPLKLEESRGHQCHNQQNFQFNIKYGSSGTHYNDNGSINHNAYISSMETGVVPESTACVTTASHPRTPKGTVEQQPDPASQMITVTQLSPMDREARVLRYREKRKTRKFEKTIRYASRKAYAEIRPRVNGRFAKREIEAEEQGFNTMLMYNTGYGIVPSF
# partner: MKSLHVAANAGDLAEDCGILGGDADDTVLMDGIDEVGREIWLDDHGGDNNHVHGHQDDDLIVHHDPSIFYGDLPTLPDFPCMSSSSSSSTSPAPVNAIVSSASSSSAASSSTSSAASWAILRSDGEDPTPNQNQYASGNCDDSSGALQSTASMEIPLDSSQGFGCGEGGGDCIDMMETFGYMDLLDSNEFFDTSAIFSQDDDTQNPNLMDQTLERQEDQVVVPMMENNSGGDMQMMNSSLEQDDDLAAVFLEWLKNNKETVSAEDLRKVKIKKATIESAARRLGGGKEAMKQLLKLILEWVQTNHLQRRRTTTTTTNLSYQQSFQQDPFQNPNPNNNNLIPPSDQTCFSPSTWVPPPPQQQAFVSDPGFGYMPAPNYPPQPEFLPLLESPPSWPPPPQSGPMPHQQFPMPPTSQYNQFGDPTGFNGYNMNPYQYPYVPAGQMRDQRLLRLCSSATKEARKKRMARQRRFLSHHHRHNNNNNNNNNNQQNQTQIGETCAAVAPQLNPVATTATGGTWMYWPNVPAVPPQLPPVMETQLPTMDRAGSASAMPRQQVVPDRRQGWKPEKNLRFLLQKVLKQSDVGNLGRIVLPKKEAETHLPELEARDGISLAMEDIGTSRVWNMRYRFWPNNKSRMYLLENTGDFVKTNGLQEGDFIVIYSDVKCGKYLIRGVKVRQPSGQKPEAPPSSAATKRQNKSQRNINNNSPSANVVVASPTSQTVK
# Variants of: B1
# Conditions: with abi3_arath ABI3, Q01593
row,Variant,effect of a mutation on the interaction
1,R340Q,decreasing interaction strength
2,P339L,decreasing interaction

# Source: IntAct's records for PubMed 10743655
